Biological target: glycophorin A TMD, BLaTM chimera
Experiment: split reporter

Question: For “glycophorin A TMD, BLaTM chimera (domain or fragment)”, which ampicillin LD50 is on record?
Answer: Its ampicillin LD50 is 100 µg/mL.

From paper doi:10.1101/2022.11.09.515782
